Reference: article PMC6327041 (Nature Communications, 2019)

Target: T1, KDM5A1-797 (Homo sapiens, UniProt P29375)
T1 construct: KDM5A1-797 was cloned into a pFASTBAC HTA vector; His (N, cleaved yes); made in house; host or cells: Sf21 insect cells (baculovirus)
T1 sequence (P29375 1-797): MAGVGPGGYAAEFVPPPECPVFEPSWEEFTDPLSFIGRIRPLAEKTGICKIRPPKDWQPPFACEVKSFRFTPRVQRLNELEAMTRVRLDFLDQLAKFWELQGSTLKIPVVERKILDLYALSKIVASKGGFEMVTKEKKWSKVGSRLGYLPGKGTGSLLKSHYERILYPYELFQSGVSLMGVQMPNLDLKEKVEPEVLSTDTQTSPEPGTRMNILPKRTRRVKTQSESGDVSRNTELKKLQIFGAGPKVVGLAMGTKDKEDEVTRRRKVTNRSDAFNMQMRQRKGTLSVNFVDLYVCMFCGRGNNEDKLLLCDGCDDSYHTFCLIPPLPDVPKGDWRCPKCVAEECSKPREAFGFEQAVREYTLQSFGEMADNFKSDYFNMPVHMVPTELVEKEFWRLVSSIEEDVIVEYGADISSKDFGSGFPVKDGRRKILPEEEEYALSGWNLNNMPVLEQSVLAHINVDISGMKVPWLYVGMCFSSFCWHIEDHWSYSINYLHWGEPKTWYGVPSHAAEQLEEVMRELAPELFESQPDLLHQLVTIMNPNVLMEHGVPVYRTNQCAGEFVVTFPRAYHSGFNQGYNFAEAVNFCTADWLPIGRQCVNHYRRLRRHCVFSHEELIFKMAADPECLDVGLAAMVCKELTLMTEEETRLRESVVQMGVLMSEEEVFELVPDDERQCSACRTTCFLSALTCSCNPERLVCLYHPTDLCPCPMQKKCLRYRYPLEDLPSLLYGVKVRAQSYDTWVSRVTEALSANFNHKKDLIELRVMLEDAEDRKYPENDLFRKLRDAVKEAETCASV
Assay: HDX-MS of KDM5A with peptides
Method: Solution-phase amide HDX experiments were carried out with a fully automated system (CTC HTS PAL, LEAP Technologies, Carrboro, NC; housed inside a 4 °C cabinet).
Peptides were identified using tandem MS (MS^2 or MS/MS) experiments performed with a LTQ linear ion trap mass spectrometer (LTQ Orbitrap XL with ETD, Thermo Fisher, San Jose, CA) over a 70 min gradient. Product ion spectra were acquired in a data-dependent mode and the five most abundant ions were selected for the product ion analysis per scan event. The MS/MS *.raw data files were converted to *.mgf files and then submitted to MASCOT ver2.3 (Matrix Science, London, UK) for peptide identification. […]
For differential HDX experiments, 5 μl of 20 μM KDM5A1-797 was diluted to 25 μl with D2O-containing HDX buffer (40 mM HEPES, 50 mM KCl, pH 7.9) and incubated at 4 °C for 10, 30, 60, 900, and 3600 s. […] Percent deuterium exchange values for peptide isotopic envelopes at each time point were calculated and processed using HDX Workbench. […] The intensity weighted mean m/z centroid value of each peptide envelope was calculated and subsequently converted into a percentage of deuterium incorporation. Statistical significance for the differential HDX data is determined by an unpaired t-test for each time point, a procedure that is integrated into the HDX Workbench software. […]

Row | perturbation of deuterium uptake (Ac-H3K4me3 21mer alone (500 µM) vs apo, 4 °C, triplicate) | Substance | deuterium exchange of PHD1 residues Gly300-Ala342, both peptides (H3 10mer (100 µM) and Ac-H3K4me3 21mer (500 µM) both present vs apo)
1 | no perturbations are observed | Ac-H3K4me3 21mer: N-terminally acetylated 21mer H3K4me3 peptide, catalytic domain substrate | –
2 | – | H3: unmodified N-terminal H3 tail 10mer peptide (H3 Ala1-Ser10), PHD1 effector ligand | increased protection observed in the PHD1 domain
